The record followed here is paper PMC2845083.

The target of the experiment is 6xHis-hKNL1 fragment (amino acids 1-86), Ser-Asp phospho-mimetic mutations in the SILK and RVSF motifs (human) (UniProt Q8NG31). The experiment can be described thus: pull-down.

Bounds are passed on as bounds.

“recombinant hPP1γ (protein phosphatase 1 gamma catalytic subunit) (from UniProt P36873 1-323) (enzyme)” yielded a reduction of binding against wild type greater than 70%.
